Assay results published in the Immune Epitope Database (IEDB).
Each block holds one sequence with its values, some of them ahead of it.

What was measured:
HLA-A*01:01 = assay: IEDB peptide-MHC binding, purified MHC/direct/fluorescence; filed as Kd, often an IC50 or EC50 that approximates it; ≥ and ≤ were set here for values at or beyond the usual limits of such assays
HLA-A*02:01 [1] = assay: as above
HLA-A*03:01 = assay: as above
HLA-A*31:01 = assay: as above; settings: source organism: Mycobacterium tuberculosis str. Haarlem
HLA-B*07:02 = assay: as above
HLA-B*15:01 = assay: as above
HLA-B*27:05 = assay: as above
HLA-B*39:01 = assay: as above; settings: source organism: Mycobacterium tuberculosis str. Haarlem
HLA-B*44:02 = assay: as above
HLA-B*46:01 = assay: as above; settings: source organism: Mycobacterium tuberculosis str. Haarlem
HLA-B*57:01 = assay: as above; settings: source organism: Mycobacterium tuberculosis str. Haarlem
HLA-B*58:01 = assay: as above
HLA-C*07:02 = assay: as above
HLA-C*12:03 = assay: as above; settings: source organism: Homo sapiens
HLA-A*02:01 [2] = assay: IEDB peptide-MHC binding, purified MHC/competitive/radioactivity; ≥ and ≤ were set here for values at or beyond the usual limits of such assays
HLA-A*24:02 = assay: IEDB peptide-MHC binding, purified MHC/direct/fluorescence; filed as Kd, often an IC50 or EC50 that approximates it; ≥ and ≤ were set here for values at or beyond the usual limits of such assays
HLA-C*05:01 = assay: as above; settings: source organism: Listeria monocytogenes EGD-e
HLA-C*15:02 = assay: as above
HLA-A*69:01 = assay: as above; settings: source organism: Vibrio cholerae
HLA-A*11:01 = assay: as above; settings: source organism: SARS-CoV1
HLA-B*08:02 = assay: as above; settings: source organism: Giardia lamblia ATCC 50803
HLA-B*15:09 = assay: as above; settings: source organism: Giardia lamblia ATCC 50803
HLA-B*18:01 = assay: as above; settings: source organism: Giardia lamblia ATCC 50803
HLA-B*40:01 = assay: as above; settings: source organism: Giardia lamblia ATCC 50803
HLA-B*08:01 = assay: IEDB peptide-MHC binding, purified MHC/competitive/fluorescence; ≥ and ≤ were set here for values at or beyond the usual limits of such assays; settings: source organism: Vaccinia virus Copenhagen
HLA-A*02:01 [3] = assay: IEDB peptide-MHC binding, purified MHC/competitive/fluorescence; filed as Kd, often an IC50 or EC50 that approximates it; ≥ and ≤ were set here for values at or beyond the usual limits of such assays; settings: source organism: Burkholderia orbicola
HLA-A*02:06 = assay: as above; settings: source organism: Burkholderia orbicola
[4] = source organism: Mycobacterium tuberculosis str. Haarlem
[5] = source organism: Giardia lamblia ATCC 50803

Sequence: FHARFVQAL
Kd (HLA-A*01:01; [4]): ≥ 20000 nM | Kd (HLA-A*02:01 [1]; [4]): ≥ 20000 nM | Kd (HLA-A*03:01; [4]): ≥ 20000 nM | Kd (HLA-A*31:01): ≥ 20000 nM | Kd (HLA-B*07:02; [4]): ≥ 20000 nM | Kd (HLA-B*15:01; [4]): ≥ 20000 nM | Kd (HLA-B*27:05; [4]): ≥ 20000 nM | Kd (HLA-B*39:01): 55.6 nM | Kd (HLA-B*44:02; [4]): ≥ 20000 nM | Kd (HLA-B*46:01): ≥ 20000 nM | Kd (HLA-B*57:01): ≥ 20000 nM | Kd (HLA-B*58:01; [4]): ≥ 20000 nM

Kd (HLA-C*07:02; source organism: Homo sapiens): 354 nM | Kd (HLA-C*12:03): 291 nM
Sequence: FLLENAAYL

Sequence: FLPNDFFPSV
IC50 (HLA-A*02:01 [2]; source organism: Hepatitis B virus): 1.1 nM

Sequence: HVDIRTLED
IC50 (HLA-A*02:01 [2]; source organism: Human papillomavirus 16): 25000 nM

Sequence: ISPRNYFTF
Kd (HLA-A*24:02; source organism: Toxoplasma gondii): ≤ 1 nM

Sequence: KAAETYHVF
Kd (HLA-B*58:01; source organism: Listeria monocytogenes): 22 nM | Kd (HLA-C*05:01): ≥ 20000 nM | Kd (HLA-C*15:02; source organism: Listeria monocytogenes EGD-e): 36 nM

IC50 (HLA-A*02:01 [2]; source organism: Homo sapiens): 102 nM
Sequence: KLIDRTESL

Sequence: KLTEEIIKL
Kd (HLA-A*02:01 [1]; source organism: Vibrio cholerae): 42.1 nM | Kd (HLA-A*69:01): 2210 nM | Kd (HLA-C*15:02; source organism: Vibrio cholerae MAK 757): ≥ 20000 nM

Sequence: KRVDWSVEY
Kd (HLA-A*11:01): 8740 nM | Kd (HLA-B*15:01; source organism: SARS-CoV1): 2720 nM | Kd (HLA-B*27:05; source organism: SARS-CoV1): 258 nM | Kd (HLA-C*07:02; source organism: SARS-CoV1): 261 nM

Sequence: LYLYVPFLW
Kd (HLA-A*24:02; source organism: Bacillus cereus 03BB108): 55 nM

Sequence: MIYELCTFR
Kd (HLA-A*01:01; [5]): ≥ 20000 nM | Kd (HLA-A*02:01 [1]; [5]): ≥ 20000 nM | Kd (HLA-A*03:01; [5]): 844 nM | Kd (HLA-B*07:02; [5]): ≥ 20000 nM | Kd (HLA-B*08:02): ≥ 20000 nM | Kd (HLA-B*15:01; [5]): ≥ 20000 nM | Kd (HLA-B*15:09): ≥ 20000 nM | Kd (HLA-B*18:01): ≥ 20000 nM | Kd (HLA-B*27:05; [5]): ≥ 20000 nM | Kd (HLA-B*40:01): ≥ 20000 nM | Kd (HLA-B*44:02; [5]): ≥ 20000 nM | Kd (HLA-B*58:01; [5]): ≥ 20000 nM

Sequence: MLYQLLEAV
IC50 (HLA-B*08:01): ≥ 303000 nM

Sequence: MQACPVDAI
Kd (HLA-A*02:01 [3]): 8.6 nM | Kd (HLA-A*02:06): 1.3 nM
